From paper PMC4871718 (Nature chemical biology, 2016)

Experiments:
CIB1-CreC = biological target: T1, CIB1-CreC (UniProt Q8GY61)
T1 sequence (Q8GY61 whole entry, looked up): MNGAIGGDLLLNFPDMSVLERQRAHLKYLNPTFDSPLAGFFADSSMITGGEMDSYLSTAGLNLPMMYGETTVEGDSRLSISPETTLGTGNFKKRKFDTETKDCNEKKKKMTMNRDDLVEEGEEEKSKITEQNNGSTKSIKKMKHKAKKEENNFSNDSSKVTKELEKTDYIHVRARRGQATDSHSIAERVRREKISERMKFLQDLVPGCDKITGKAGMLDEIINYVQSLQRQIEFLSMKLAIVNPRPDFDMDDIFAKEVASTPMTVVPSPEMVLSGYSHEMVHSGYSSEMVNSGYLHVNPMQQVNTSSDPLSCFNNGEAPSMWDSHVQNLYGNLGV

LexABD-CRY2(535) = LexABD-CRY2(535) (Arabidopsis thaliana, UniProt Q96524 1-535); experiment: two-hybrid

CRY2(L348F)-CreN (from UniProt Q96524 1-612; P06956 1-104)
Cre recombination with extended 24 hour illumination (CIB1-CreC): > 50%

B1: VP16-CIB1 (natural protein, UniProt Q8GY61 1-335, looked up)
chain: MNGAIGGDLLLNFPDMSVLERQRAHLKYLNPTFDSPLAGFFADSSMITGGEMDSYLSTAGLNLPMMYGETTVEGDSRLSISPETTLGTGNFKKRKFDTETKDCNEKKKKMTMNRDDLVEEGEEEKSKITEQNNGSTKSIKKMKHKAKKEENNFSNDSSKVTKELEKTDYIHVRARRGQATDSHSIAERVRREKISERMKFLQDLVPGCDKITGKAGMLDEIINYVQSLQRQIEFLSMKLAIVNPRPDFDMDDIFAKEVASTPMTVVPSPEMVLSGYSHEMVHSGYSSEMVNSGYLHVNPMQQVNTSSDPLSCFNNGEAPSMWDSHVQNLYGNLGV
fold reduction in dark activity against LexABD-CRY2PHR (LexABD-CRY2(535)): 26 fold
